Measured values: paper PMC11984713

Molecular target: FLAG-SpbK (Bacillus subtilis (ICEBs1))

YonE-Myc (natural protein) was tested, and the fold decrease in cellular levels of NAD^+ 15 to 30 minutes after induction of yonE in cells expressing spbK (untagged proteins) was 100 fold.
